From the supplement of paper PMC7877785
± gives the uncertainty stated by the source.

Test: self-splicing fitness, log relative to wild type (ln ratio); higher = more splicing; Tetrahymena group I intron in knt gene, E. coli kanamycin selection, DiMSum; sequences stand for … in CUCUCU…GGAGGGAAAAGUUAUCAGGCAUGCACCUGGUAGCUAGUCUUUAAACCAAUAGAUUGCAUCGGUUUAAAAGGCAAGACCGUCAAAUUGCGGGAAAGGGGUCAACAGCCGUUCAGUACCAAGUCUCAGGGGAAACUUUGAGAUGGCCUUGCAAAGGGUAUGGUAAUAAGCUGACGGACAUGGUCCUAACCACGCAGCCAAGUCCUAAGUCAACAGAUCUUCUGUUGAUAUGGAUGCAGUUCACAGACUAAAUGUCGGUCGGGGAAGAUGUAUUCUUCUCAUAAGAUAUAGUCGGACCUCUCCUUAAUGGGAGCUAGCGGAUGAAGUGAUGCAACACUGGAGCCGCUGGGAACUAAUUUGUAUGCGAAAGUAUAUUGAUUAGUUUUGGAGUACUCGUGGUCG
In short: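 Library with all eight P1ex-region intron nucleotides randomised, intron inside the knt kanamycin-resistance gene on pET-22b(+), in E. coli BL21(DE3). Cells grew overnight at 37°C or 30°C on LB agar with or without 25 μg/mL kanamycin (plus 100 μg/mL carbenicillin, 50 μM IPTG, 0.2% rhamnose), in six replicate transformations. Pooled colonies were amplicon-sequenced on Illumina HiSeq 2500. DiMSum fitness is the error-weighted combination of wild-type-normalised replicate fold changes, kanamycin versus none.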

Sequence | self-splicing fitness (ln) (30 °C) | self-splicing fitness (ln) (37 °C)
CCCCAGCAAUAUUACGGCCA | -3.1 ± 0.2 | -2.16 ± 0.2
CCCCAGCAAUAUUACGGCCU | -3.02 ± 0.29 | -2.82 ± 0.47
CCCCAGCAAUAUUACGGCGU | -2.22 ± 0.073 | -1.81 ± 0.1
CCCCAGCAAUAUUACGGGUC | -2.82 ± 0.11 | -2.43 ± 0.16
CCCCAGCAAUAUUACGGUGA | -1.76 ± 0.085 | -1.77 ± 0.11
CCCCAGCAAUAUUACGUAUG | -3.71 ± 0.15 | -1.96 ± 0.13
CCCCAGCAAUAUUACGUCAG | -2.54 ± 0.14 | -1.36 ± 0.15
CCCCAGCAAUAUUACGUCGU | -3.19 ± 0.12 | -2.05 ± 0.12
CCCCAGCAAUAUUACGUUCG | -3.53 ± 0.16 | -2.79 ± 0.17
CCCCAGCAAUAUUACGUUGC | -3.41 ± 0.12 | -2.78 ± 0.17
CCCCAGCAAUAUUACGUUGG | -3.95 ± 0.12 | -2.83 ± 0.14
CCCGAGCAAUAUUACGAAAG | -3.74 ± 0.27 | -1.7 ± 0.36
CCCGAGCAAUAUUACGAAAU | -3.65 ± 0.33 | -0.929 ± 0.16
CCCGAGCAAUAUUACGAAUC | -1.59 ± 0.16 | 
CCCGAGCAAUAUUACGACAC | -3.41 ± 0.4 | 
CCCGAGCAAUAUUACGACGU | -2.47 ± 0.15 | -0.954 ± 0.13
CCCGAGCAAUAUUACGAUGG | -3.39 ± 0.16 | -1.28 ± 0.13
CCCGAGCAAUAUUACGCAGU | -2.82 ± 0.16 | -2.64 ± 0.18
CCCGAGCAAUAUUACGCGUA | -3.06 ± 0.21 | -2.05 ± 0.21
CCCGAGCAAUAUUACGGAAC | -2.51 ± 0.31 | -2.57 ± 0.34
CCCGAGCAAUAUUACGGACC | -3 ± 0.28 | 
CCCGAGCAAUAUUACGGAGC | -1.75 ± 0.16 | -2.77 ± 0.36
CCCGAGCAAUAUUACGGAUG | -1.67 ± 0.091 | -1.35 ± 0.13
CCCGAGCAAUAUUACGGGAG | -3.25 ± 0.24 | -1.5 ± 0.19
CCCGAGCAAUAUUACGGGUA | -3.44 ± 0.2 | -3.43 ± 0.23

Sequence | self-splicing fitness (ln) (30 °C) | self-splicing fitness (ln) (37 °C)
CCCGAGCAAUAUUACGUAAG | -3.63 ± 0.2 | -2.77 ± 0.18
CCCGAGCAAUAUUACGUAGU | -3.11 ± 0.15 | -2.58 ± 0.19
CCCGAGCAAUAUUACGUCGC | -2.91 ± 0.25 | -2.29 ± 0.4
CCCGAGCAAUAUUACGUGUG | -3.24 ± 0.12 | -1.86 ± 0.098
CCCUAGCAAUAUUACGAACU | -2.89 ± 0.18 | -3.56 ± 0.39
CCCUAGCAAUAUUACGAGUG | -3.51 ± 0.16 | -2.28 ± 0.12
CCCUAGCAAUAUUACGAUAG | -2.74 ± 0.2 | -2.39 ± 0.27
CCCUAGCAAUAUUACGAUUC | -1.79 ± 0.35 | 
CCCUAGCAAUAUUACGCAAA | -3.13 ± 0.24 | -3.49 ± 0.42
CCCUAGCAAUAUUACGCACG | -3.98 ± 0.37 | -1.74 ± 0.18
CCCUAGCAAUAUUACGCACU | -2.43 ± 0.15 | -2.64 ± 0.24
CCCUAGCAAUAUUACGCCGA | -3.85 ± 0.33 | -2.31 ± 0.3
CCCUAGCAAUAUUACGCUCA |  | -2.67 ± 0.36
CCCUAGCAAUAUUACGCUCC |  | -2.13 ± 0.4
CCCUAGCAAUAUUACGGCCA | -2.88 ± 0.39 | -2.19 ± 0.26
CCCUAGCAAUAUUACGGGAA | -3.63 ± 0.25 | -3.08 ± 0.19
CCCUAGCAAUAUUACGGUAG | -3.6 ± 0.16 | -3.5 ± 0.21
CCCUAGCAAUAUUACGGUGC | -3.43 ± 0.12 | -2.88 ± 0.17
CCCUAGCAAUAUUACGGUGG | -4.27 ± 0.29 | -1.93 ± 0.16
CCCUAGCAAUAUUACGGUUU | -3.31 ± 0.17 | -2.87 ± 0.17
CCCUAGCAAUAUUACGUACU | -2.78 ± 0.14 | -2.65 ± 0.23
CCCUAGCAAUAUUACGUCAC | -2.55 ± 0.24 | -1.44 ± 0.34
CCCUAGCAAUAUUACGUGGA | -1.42 ± 0.094 | -0.882 ± 0.093
CCCUAGCAAUAUUACGUGGU | -4.61 ± 0.2 | -2.27 ± 0.14
